Data reported in publication PMC6599559 (2019).

Molecular target: eEF-2 (Homo sapiens, UniProt P13639)
Assay: kinase inhibition assay

B1: eEF-2K 562-725 (protein)
chain: GELEAIVGLGLMYSQLPHHILADVSLKETEENKTKGFDYLLKAAEAGDRQSMILVARAFDSGQNLSPDRCQDWLEALHWYNTALEMTDCDEGGEYDGMQDEPRYMMLAREAEMLFTGGYGLEKDPQRSGDLYTQAAEAAMEAMKGRLANQYYQKAEEAWAQMEE
  Ki: ~9 µM
